{
  "source": "patent US7645449B2",
  "about": "“Sensitizing cells for apoptosis by selectively blocking cytokines” (priority 2003, dated 2010)",
  "format_in_all_cases": "cell-based, human",
  "key": {"[1]": {"test_system": "LNCaP prostate cancer cells", "assay": "MTS viability of LNCaP cells: chemotherapy- and anti-CD95-induced apoptosis", "experimental": "Human LNCAP prostate cancer cell line and human MDA-MB-231 breast cancer cell line were obtained from the American Type Culture Collection (ATCC, Manassas, Va.). Human RT112 bladder carcinoma cell line was kindly provided by Dr. M. Cippitelli (Regina Elena Cancer Institute, Rome, Italy). Cells were grown in RPMI 1640 (Life Technologies Inc., Grand Island, N.Y.) containing 10% heat inactivated fetal bovine serum supplemented with L-Glutamine 2 mM and 100 units/ml Penicillin-Streptomycin. Cells were kept in 5% CO2 atmosphere and routinely passaged when 80-85% confluent. […]\nCell viability was determined using the CellTiter 96® AQueous One Solution Cell Proliferation Assay (Promega, Madison, Wis.), according to the manufacturer's instructions. The assay is based on reduction of 3-(4,5-dimethylthiazol-2-yl)-5-(3-carboxymethoxyphenyl)-2-(4-sulfophenyl)-2H-tetrazolium, inner salt (MTS) to a colored formazan product that is measured spectrophotometrically. […] After 3 hours of incubation at 37° C. with the MTS reagent, the plates were read on a Multilabel Counter (Victor2, Wallac, Perkin-Ehmer Inc., Norwalk, Conn.) and dye absorbance was measured at 490 nm.\nThe percentage of apoptotic cells was derived from the percentage of viable cells that was directly calculated from the values of the MTS assay."}, "[2]": {"test_system": "Bcl-xL and cFlip/FLAME-1 in bladder tumor cells (RT112)", "assay": "Western blot of apoptosis-related proteins in RT112 cells", "experimental": "The observation that tumor cells treated with IL-4 display a reduced sensitivity to chemotherapeutic drugs led us to investigate whether this cytokine would influence the expression of apoptosis regulatory genes. Western blot analysis of apoptosis-related proteins was performed on cancer cell lines treated for 48 hours with IL-4 as compared to untreated or IL-2-treated controls. […] The increased expression of cFlip/FLAME-1 prompted us to investigate if IL-4 could protect tumor cells from death receptor stimulation. CD95 ligand (CD95L) is one of the major effector molecules of cytotoxic T lymphocytes and NK cells.\n(§1) Cell pellets were washed twice with cold PBS and lysed on ice for 30 minutes with 1% NP40 lysis buffer (20 mM Tris-HCl pH 7.2, 200 mM NaCl, 1% NP40) in the presence of 1 mM phenylmethylsulphonyl fluoride (PMSF) and 2 μg/ml each of aprotinin, leupeptin and pepstatin. Cell debris was removed by centrifugation at 13,000 rpm for 10 minutes at 4° C. Lysate concentration was determined using the Bio-Rad protein assay (Bio-Rad Laboratories, Richmond, Calif.). Aliquots of cell extracts containing 30 μg of total protein were resolved on 10% or 12% SDS-PAGE and transferred to a Hybond-C extra nitrocellulose membrane (Amersham Pharmacia Biotech, Piscataway, N.J.). […]"}, "[3]": {"test_system": "cFlip/FLAME-1 in MDA-MB-231 cells", "assay": "Immunoblot of Bcl-XL and cFlip/FLAME-1 in MDA-MB-231 cells", "details": "following IL-4 treatment", "experimental": "The observation that prostate and breast tumor cells treated with IL-4 display a reduced sensitivity to death induced by CD95 and chemotherapeutic drugs led us to investigate whether this cytokine would influence the expression of apoptosis regulatory genes. […] Therefore, IL-4-mediated increased survival in bladder, prostate and breast cancer cells is associated with upregulation of anti-apoptotic proteins.\nas §1"}, "[4]": {"test_system": "freshly isolated normal breast epithelial cells", "assay": "Bcl-XL expression and chemotherapy-induced apoptosis in normal breast epithelial cells exposed to IL-4", "from_the_text": "To confirm that IL-4-induced upregulation of Bcl-XL is able to protect epithelial breast cells from apoptosis, freshly isolated normal breast epithelial cells were exposed to IL-4 and analyzed Bcl-XL expression and sensitivity to a panel of chemotherapeutic drugs commonly used to treat breast cancer. […] To confirm that in vivo exposure to IL-4 is responsible for high Bcl-XL expression and resistance to chemotherapy in breast cancer, Bcl-XL expression and sensitivity to apoptosis of primary breast carcinoma cells cultivated in the presence or absence of IL-4 was measured Freshly isolated breast cancer cells expressed high levels of Bcl-XL and were scarcely sensitive to chemotherapeutic drugs (FIGS. 14C and D). […] Thus, in vivo IL-4 production promotes the survival of breast cancer cells. […]\nCell pellets were washed twice with cold PBS and lysed on ice for 30 minutes with 1% NP40 lysis buffer (20 mM Tris-HCl pH 7.2, 200 mM NaCl, 1% NP40) in the presence of 1 mM phenylmethylsulphonyl fluoride (PMSF) and 2 μg/ml each of aprotinin, leupeptin and pepstatin. […] Lysate concentration was determined using the Bio-Rad protein assay (Bio-Rad Laboratories, Richmond, Calif.). […]"}},
  "data": [
    {"molecule": "IL-4: human recombinant IL-4 (protein, UniProt P05112 25-153, looked up) Interleukin-4: HKCDITLQEIIKTLNSLTEQKTLCTELTVTDIFAASKNTTEKETFCRAATVLRQFYSHHEKDTRCLGATAQQFHRHKQLIRFLKRLDRNLWGLAGLNSCPVKEANQSTLENFLERLKTIMREKYSKCSS", "values": [
      {"measurement": "anti-CD95-induced apoptosis of LNCaP cells", "setting": "[1]; cytokine pretreatment, 30 ng/ml anti-CD95 agonistic antibody", "value": "greatly reduced anti-CD95-induced apoptosis"},
      {"measurement": "drug-induced death of LNCaP cells", "setting": "[1]; two days cytokine pretreatment (20 ng/ml), 300 ng/ml cisplatin or 1 μM vincristine", "value": "significantly protected from drug-induced death"},
      {"measurement": "levels of caspases and other pro- and anti-apoptotic Bcl-2 family members", "setting": "[2]; 48 hours with IL-4", "value": "remained unchanged"},
      {"measurement": "levels of Bcl-xL and cFlip/FLAME-1", "setting": "[2]; 48 hours with IL-4, compared to untreated or IL-2-treated controls", "value": "increased"},
      {"measurement": "cFlip/FLAME-1 level in MDA-MB-231 cells", "setting": "[3]", "value": "only a modest increase"},
      {"measurement": "apoptosis of normal breast epithelial cells induced by cisplatin, doxorubicin and taxol", "setting": "[4]; IL-4 pretreatment", "value": "significantly protected"},
      {"measurement": "Bcl-XL expression in normal breast epithelial cells", "setting": "[4]; IL-4 treatment", "value": "considerably increased the expression of Bcl-XL"}
    ]}
  ]
}
